Experimental findings from patent CN106946990A are described below.

The target of experiment [1] is Myc-GST融合蛋白 (Myc tag fused to glutathione [S-transferase]). As to the kind of experiment: indirect ELISA on coated Myc-GST (5 μg/mL), HRP anti-His secondary, 30 min at 70℃. (An ELISA detects its analyte on a solid surface through an enzyme-linked reagent.)
Experiment [2] shares this target. Briefly: indirect ELISA on coated Myc-GST (5 μg/mL), HRP anti-His secondary, 30 min at 80℃.
The target is the same in experiment [3]. Briefly: indirect ELISA on coated Myc-GST (5 μg/mL), HRP anti-His secondary, 30 min at 90℃.

B1: 针对c-Myc标签的单域重链抗体 (single-domain heavy-chain antibody against the c-Myc tag, SEQ ID NO.:1) (VHH, not shown: small tags and cut ends)
VHH: QLQLVESGGGLVQPGGSLRLSCSASGFAFNLFYMGWVRQAPGKGLEWVADIDNTGDKYYAESVEGRFTVSRDNAKKTLYLQMDSLKSEDTAQYYCLKGGCRETFSLCARGQGTQVTVSS
As for B1, the OD450 in experiment [1] was 1.5 OD450; in experiment [2], 1.4 OD450; in experiment [3] it was 1.1 OD450.
